Assay [1] addresses T1, HAstV1 capsid spike, histidine-tagged (Human astrovirus 1 (HAstV1), GenBank …).
T1 construct: also called HAstV1 spike; histidine-tagged HAstV1 spike
T1 chain: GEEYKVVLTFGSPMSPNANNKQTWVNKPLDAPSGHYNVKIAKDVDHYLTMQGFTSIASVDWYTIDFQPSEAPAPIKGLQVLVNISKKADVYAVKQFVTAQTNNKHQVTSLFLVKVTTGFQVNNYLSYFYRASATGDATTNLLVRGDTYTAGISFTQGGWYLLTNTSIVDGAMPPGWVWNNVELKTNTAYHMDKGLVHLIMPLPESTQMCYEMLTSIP
Description: BLI; histidine-tagged HAstV1 spike (0.5 ug/mL) loaded on Anti-Penta-His (HIS1K) biosensors; Fab in solution (3H4: 2.5, 5, 10, 20 nM; 3B4: 20, 40, 80, 160 nM); Octet Kinetics Buffer (PBS pH 7.4 + 0.1% BSA + 0.02% Tween 20); association 180 s, dissociation 600 s; global 1:1 fit; average of three replicates. To be noted: both partners purified. A general note: BLI is a label-free optical method that tracks binding on a fibre tip over time.

In assay [2] the target is HAstV1 capsid spike, biotinylated (human astrovirus 1 (HAstV1)) (UniProt O12792). Put plainly: BLI; competition: biotinylated HAstV1 spike (0.5 ug/mL) on streptavidin biosensors, saturated with 150 nM Fab 3H4 or 250 nM Fab 3B4 for 600 s, then dipped into 2 uM FcRn for 300 s; Octet Kinetics Buffer; FcRn shift normalised to FcRn on spike without Fab (100%) and to self-Fab control (0%); triplicate.

B1: Fab 3H4 (Fab, V domains shown)
VH: QVQLKESGPGLVAPSQSLSISCTVSGFSLTTFGIHWIRQPPGKGLEWLGVIWAAGTTNYNSTLKSRLTITKDNSRSQVFLKMNSLQTYDTAIYYCVREDYDYFFGLDYWGQGTSVTVSS
VL: QAVVTQESALTTSPGETVTLTCRSSTGAVTTSNYASWVQEKPDHLFIGLIGGTNNRAPGVPARFSGSLIGDKAALTITGAQTDDEAIYFCALWFSNHWVFGGGTKLTVL
notes: source: CHO-S, electroporated, purified from supernatant (StrepTrap HP)
As a reminder, the Kd is the free concentration of one partner at which half of the binding sites on the other are occupied at equilibrium, for simple one-to-one binding. Regarding B1, the dissociation constant Kd in assay [1] was determined as 0.49 nM. Also, the FcRn binding (%) left on spike saturated with the Fab in assay [2] was 4%.

B2: Fab 3B4 (Fab, V domains shown)
VH: QVQLHQPGAELVKPGASVNLSCKASGYTFTSYWMHWVKQRPGQGLEWIGEINPSSGRANYNEKFKNKATLTVDKSSITAYMHLSSLTSEDSAVYYCHWDYYAMDYWGQGTSVTVSS
VL: DIVLTQSPATLSVTPGDSVSLSCRASQSISNNLHWYQQKSHESPRLLFKSASQSISGIPSRFSGSGSGTDFTLSINSVETEDFGMYFCQQTNSWPLTFGTGTKLDLK
notes: as for B1
With B2, in assay [1], the dissociation constant (Kd) stood at 11.8 nM. The FcRn binding (%) left on spike saturated with the Fab in assay [2] was 40%.

The values above are taken from article PMC11852706, “Discovery of three novel neutralizing antibody epitopes on the human astrovirus capsid spike and mechanistic insights into virus neutralization” (Journal of Virology, 2025).
